Test results as given in patent publication US20180362604A1.

Key:
Activin A = Activin A (UniProt P08476); assay: cell-based or functional assay
Myostatin [1] = target: Myostatin (UniProt O14793); assay: cell-based or functional assay
FcRn receptor [2] = assay: FcRn binding, 'standard methods'
Myostatin [3] = target: Myostatin (UniProt O14793); assay: SPR
FcRn receptor [4] = assay: SPR
Myostatin [5] = target: Myostatin (UniProt O14793); assay: SPR (BIAcore), anti-human Fc capture, myostatin as analyte

Chain of Myostatin (O14793 267-375 limits assumed): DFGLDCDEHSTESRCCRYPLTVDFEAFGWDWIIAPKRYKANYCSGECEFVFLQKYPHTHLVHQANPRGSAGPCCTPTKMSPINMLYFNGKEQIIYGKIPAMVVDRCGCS
Chain of Activin A (P08476 311-426): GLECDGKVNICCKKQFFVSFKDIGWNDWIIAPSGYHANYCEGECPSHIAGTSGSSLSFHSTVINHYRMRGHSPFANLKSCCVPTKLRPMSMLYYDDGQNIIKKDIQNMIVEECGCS

Activin A IC50, cell-based assay for SMAD pathway (A204 luciferase reporter) (Activin A) [nM]	Myostatin IC50, cell-based assay for SMAD pathway (A204 luciferase reporter) (Myostatin [1]) [nM]	Kd (FcRn receptor [2]) [nM]	Kd (Myostatin [3]) [nM]	Kd (FcRn receptor [4]) [nM]	Kd (Myostatin [5]) [pM]	Substance
1	0.4					FS315K(81,82,84)E-hFcLALA (Fc fusion)
0.6	0.5					FS315R78E/K(82,84)E-hFcLALA (Fc fusion)
	0.4	372	0.0174	48		FS315ΔHBS-hFcLALA (Fc fusion)
		36.7			3.3	monoFS315ΔHBS-hFcLALA (Fc fusion)
